# Data published in US20250313629A1 (Hoffmann-La Roche, published 2025).
# Experiments:
# [1] = target: T1, cynomolgus Lag3 on cells (HEK293F cells transiently transfected with cyno-LAG-3); activated cynomolgus PBMC/T … (cynomolgus); assay: flow cytometry on CD3/CD28-activated cynomolgus PBMC, antibody at 10 ug/ml
# T1 construct: whole, on cells
# Experimental: Thus, cynomolgus peripheral blood mononuclear cells (PBMC) were prepared from fresh cynomolgus blood and were then activated by CD3/CD28 pre-treatment (1 μg/ml) for 2-3 days. […] After staining, cells were washed two times with PBS/2% FCS and analyzed on a FACS Fortessa (BD).
# [2] = target: T2, biotinylated-Lag3 (UniProt P18627 23-450, limits assumed, biotinylated (site not stated)); assay: competition cell ELISA: antibody pre-incubated with biotinylated Lag3, binding to MHC-II on A375 cells
# T2 construct: also called LAG-3 (A375 MHC-II ELISA)
# T2 sequence (looked up): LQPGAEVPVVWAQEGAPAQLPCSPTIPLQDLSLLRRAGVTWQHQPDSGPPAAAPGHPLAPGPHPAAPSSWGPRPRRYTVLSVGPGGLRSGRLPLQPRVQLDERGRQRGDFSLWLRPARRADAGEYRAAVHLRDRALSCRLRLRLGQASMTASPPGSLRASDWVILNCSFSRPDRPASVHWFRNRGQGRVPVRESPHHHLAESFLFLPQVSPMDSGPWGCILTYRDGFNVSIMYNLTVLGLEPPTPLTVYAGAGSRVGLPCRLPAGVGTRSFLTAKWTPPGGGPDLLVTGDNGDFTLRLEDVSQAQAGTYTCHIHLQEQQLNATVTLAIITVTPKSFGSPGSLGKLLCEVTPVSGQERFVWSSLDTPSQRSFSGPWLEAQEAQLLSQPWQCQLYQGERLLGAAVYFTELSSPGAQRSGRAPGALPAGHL
# Experimental: 25 μl/well of A375 cells (10000 cells/well) were seeded into tissue culture treated 384-well plates (Corning, 3701) and incubated at 37° C. overnight. […] After washing (1×90 μl in PBST) cells were fixed by addition of 30 μl/well glutaraldehyde to a final concentration of 0.05% (Sigma Cat.No: G5882), 10 min at room temperature. After washing (3×90 μl/well with PBST-buffer) 25 μl/well Poly-HRP40-Streptavidin (Fitzgerald, 65R-S104PHRPx) was added in a 1:2000 or 1:8000 dilution and incubated at RT for 1 h. After washing (3×90 μl/well with PBST-buffer) 25 μl/well TMB substrate (Roche, 11835033001) was added and incubated for 2 to 10 min. Measurement took place on a Tecan Safire 2 instrument at 370/492 nm.
# [3] = target: T3, Lag3 expressed on cells (recombinant CHO cells expressing Lag3; Lag3+ NFAT Jurkat effector cells) (human, UniProt P18627 29-525); assay: cell-based or functional assay
# T3 sequence: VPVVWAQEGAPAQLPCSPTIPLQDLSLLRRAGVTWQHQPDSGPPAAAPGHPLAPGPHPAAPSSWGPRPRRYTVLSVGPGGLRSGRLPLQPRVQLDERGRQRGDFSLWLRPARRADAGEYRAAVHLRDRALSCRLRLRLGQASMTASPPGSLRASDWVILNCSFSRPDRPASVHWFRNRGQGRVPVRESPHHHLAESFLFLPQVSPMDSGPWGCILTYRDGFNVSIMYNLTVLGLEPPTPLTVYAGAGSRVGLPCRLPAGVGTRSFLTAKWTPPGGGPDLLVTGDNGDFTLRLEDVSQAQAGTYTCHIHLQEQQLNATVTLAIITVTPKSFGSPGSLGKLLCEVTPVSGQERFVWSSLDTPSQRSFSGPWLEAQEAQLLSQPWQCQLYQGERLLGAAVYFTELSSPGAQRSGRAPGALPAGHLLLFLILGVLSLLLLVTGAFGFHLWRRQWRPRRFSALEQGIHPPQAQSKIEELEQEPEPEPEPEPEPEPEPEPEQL
Binder,percentage of Lag3 positive cells [1],IC50 [2],"EC50 [nM] in Jurkat LAG3 + SED + Raji, 2nd assay [3]","EC50 [nM] in Jurkat LAG3 + SED + Raji, 1st assay [3]","EC50 [nM] in Jurkat LAG3 + SED + Raji, 3rd assay [3]"
"aLAG3(0403) (antibody, V domains shown, also called anti-Lag3 aLAG3 (0403)) VH: EVQLLESGGGLVQPGGSLRLSCAASGFTFDDYTMHWVRQAPGKGLEWVSLVSWDGGGTYYTNSVKGRFTISRDNSKNTLYLQMNSLRAEDTAVYFCAKAITDTSLYGYDYWGQGILVTVSS VL: not shown",44.2%,–,–,–,–
"humanized BAP050 (LAG525) (antibody, V domains shown) VH: QIQLVQSGPELKKPGETVKISCKASGFTLTNYGMNWVRQTPGKGLKWMGWINTDTGEPTYADDFKGRFAFSLETSASTASLQINNLKNADTATYFCARNPPYYYGTNNAEAMDYWGQGTTVTVSS VL: DIQMTQTTSSLSASLGDRVTISCSSSQDISNYLMWYQQKPDGTVKVLIYYTSTLHLGVPSRFSGSGSGTDYSLTISNLELEDIATYYCQQYYNLPWTFGQGTKVEIK",50.7%,1 nM,22.6 nM,–,–
"MDX25F7 (25F7) (antibody, V domains shown, also called Medarex 25F7) VH: QVQLQQWGAGLLKPSETLSLTCAVYGGSFSDYYWNWIRQPPGKGLEWIGEINHNGNTNSNPSLKSRVTLSLDTSKNQFSLKLRSVTAADTAVYYCAFGYSDYEYNWFDPWGQGTLVTVSS VL: EIVLTQSPATLSLSPGERATLSCRASQSISSYLAWYQQKPGQAPRLLIYDASNRATGIPARFSGSGSGTDFTLTISSLEPEDFAVYYCQQRSNWPLTFGQGTNLEIK",22.1%,–,8.6 nM,–,–
"BMS-986016 (antibody, V domains shown) VH: QVQLQQWGAGLLKPSETLSLTCAVYGGSFSDYYWNWIRQPPGKGLEWIGEINHRGSTNSNPSLKSRVTLSLDTSKNQFSLKLRSVTAADTAVYYCAFGYSDYEYNWFDPWGQGTLVTVSS VL: EIVLTQSPATLSLSPGERATLSCRASQSISSYLAWYQQKPGQAPRLLIYDASNRATGIPARFSGSGSGTDFTLTISSLEPEDFAVYYCQQRSNWPLTFGQGTNLEIK",18.6%,–,–,–,–
"aLAG3(0411) (antibody, V domains shown, also called aLAG3 (411)) VH: EVHLLESGGGLVQPGGSLRLSCAASGFIVDDYTMNWVRQAPGKGLEWVSVISWDGGATYYADSVKGRFTISRDDFKNTLYLQMNSLRAEDTAVYYCAKGLTDDTLYGSDYWGQGTLVTVSS VL: DIQMTQSPSSLSASVGDRVTITCRASQSIVSYLNWYQQKPGKAPKLLIYASSSLQSGVPSRFSGSGSGTDFTLTISSLQPEDFATYYCQQTYSTPLTFGGGTKVEIK",46.6%,–,1 nM,1.1 nM,–
"aLAG3(0416) (antibody, V domains shown, also called aLAG3 (416)) VH: EVQLVESGGGLVQPGGSLRLACAASGFTFSDYAMSWVRQAPGKGLEWVSGIDNSGYYTYYTDSVKGRFTISRDDVKNTLYLQMNSLRAEDTAVYLCTKTHSGLIVNDAFDIWGQGTMVTVSS VL: DIQLTQSPSSLSASVGDRVTITCRASQSISSYLNWYQQKPGKAPKLLIYDASSLESGVPSRFSGSGSGTDATLTISSLQPEDFATYYCQQSYSTPLTFGGGTKVEIK",38.9%,–,2.5 nM,3.1 nM,3.5 nM
"aLAG3(0414) (antibody, V domains shown, also called aLAG3 (414)) VH: EVQLLESGGGLVQPGGSLRLSCAASGFIFDDYTMNWVRQAPGKGLEWVAVISWDGGGTYYTDSVKGRFTISRDDFKNTLYLQMNSLRAEDTAVYYCAKGLTDTTLYGSDYWGQGTLVTVSS VL: DIQMTQSPSSLSASVGDRVTITCRASQSISSYLNWYQQKPGKAPKLLIYAASTLQSGVPSRFSGSGSGTDFTLTISSLQPEDFATYYCQQTYSSPLTFGGGTKVEIK",43%,–,1 nM,1.1 nM,1.8 nM
"aLAG3(0417) (antibody, V domains shown, also called aLAG3 (417)) VH: EVQLVESGGGLVQPGGSLRLACAASGFTFSDYAMSWVRQAPGKGLEWVSGIDNSGYYTYYTDSVKGRFTISRDDVKNTLYLQMNSLRAEDTAVYLCTKTHSGLIVNDAFDIWGQGTMVTVSS VL: not shown",35.3%,–,–,1 nM,–
